From article PMC3235118, “Juvenile Hormone (JH) Esterase of the Mosquito Culex quinquefasciatus Is Not a Target of the JH Analog Insecticide Methoprene” (PLoS ONE, 2011)

Experiments:
CqJHE [1] = molecular target: T1, CqJHE (Culex quinquefasciatus, UniProt R4HZP1); test: competition in JH III partition assay; type: biochemical
T1 construct: gene jhe; full-length cDNA (ORF 1746 nt) from 4th instar larvae, predicted 19-residue signal peptide removed on secretion, mature 563 residues, 63,430 Da; recombinant baculovirus AcCqJHE in High Five cells, secreted
T1 sequence (R4HZP1 20-582): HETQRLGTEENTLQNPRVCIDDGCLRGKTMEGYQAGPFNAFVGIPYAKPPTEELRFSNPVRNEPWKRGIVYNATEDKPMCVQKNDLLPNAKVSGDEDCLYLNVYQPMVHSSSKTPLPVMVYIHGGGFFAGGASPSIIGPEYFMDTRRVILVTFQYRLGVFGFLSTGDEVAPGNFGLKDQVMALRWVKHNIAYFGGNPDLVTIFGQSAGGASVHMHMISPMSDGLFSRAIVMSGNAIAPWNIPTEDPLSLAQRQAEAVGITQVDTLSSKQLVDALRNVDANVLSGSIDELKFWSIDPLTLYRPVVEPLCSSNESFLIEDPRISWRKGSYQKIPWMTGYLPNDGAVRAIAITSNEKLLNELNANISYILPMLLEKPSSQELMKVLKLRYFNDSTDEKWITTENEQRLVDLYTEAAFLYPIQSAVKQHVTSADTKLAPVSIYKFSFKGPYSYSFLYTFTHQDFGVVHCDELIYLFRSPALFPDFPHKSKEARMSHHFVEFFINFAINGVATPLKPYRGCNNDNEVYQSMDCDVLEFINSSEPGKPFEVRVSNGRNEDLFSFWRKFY

CqJHE [2] = molecular target: T1, CqJHE; test: JH III partition assay (radiolabelled JH III), […] min preincubation; type: biochemical
[3] = substrate: CC(=O)Oc1cccc2ccccc12; test: spectrophotometric, OD450; type: biochemical, Culex quinquefasciatus; conditions: glycine-NaOH pH 9.0, 30°C
Excerpt: spectrophotometric, OD450 on CqJHE

[4] = substrate: CC(=O)Oc1ccc([N+](=O)[O-])cc1; test: spectrophotometric, OD405; type: biochemical, Culex quinquefasciatus; conditions: 50 mM sodium phosphate pH 7.4, 30°C
Excerpt: spectrophotometric, OD405 on CqJHE

[5] = substrate: COC(=O)/C=C(\C)CC/C=C(\C)CC[C@H]1OC1(C)C; test: JH III partition assay (radiolabelled JH III); type: biochemical, Culex quinquefasciatus; conditions: 50 mM sodium phosphate pH 7.4, 30°C
Excerpt: JH III partition assay (radiolabelled JH III) on CqJHE

C#CCOC(=O)/C=C(C)/C=C/CC(C)CCCC(C)C (stereo not drawn) [kinoprene]
inhibition at 5 µM (CqJHE [1]): 50%

CCOC(=O)/C=C(C)/C=C/C[C@@H](C)CCCC(C)C [hydroprene]
inhibition at 5 µM (CqJHE [1]): 40%

CCCCCCCCSCC(=O)C(F)(F)F [OTFP, 3-octylthio-1,1,1-trifluoropropan-2-one]
IC50 (CqJHE [2]): 0.23 ± 0.05 nM

B1: CqJHE (Culex quinquefasciatus) (protein)
chain: HETQRLGTEENTLQNPRVCIDDGCLRGKTMEGYQAGPFNAFVGIPYAKPPTEELRFSNPVRNEPWKRGIVYNATEDKPMCVQKNDLLPNAKVSGDEDCLYLNVYQPMVHSSSKTPLPVMVYIHGGGFFAGGASPSIIGPEYFMDTRRVILVTFQYRLGVFGFLSTGDEVAPGNFGLKDQVMALRWVKHNIAYFGGNPDLVTIFGQSAGGASVHMHMISPMSDGLFSRAIVMSGNAIAPWNIPTEDPLSLAQRQAEAVGITQVDTLSSKQLVDALRNVDANVLSGSIDELKFWSIDPLTLYRPVVEPLCSSNESFLIEDPRISWRKGSYQKIPWMTGYLPNDGAVRAIAITSNEKLLNELNANISYILPMLLEKPSSQELMKVLKLRYFNDSTDEKWITTENEQRLVDLYTEAAFLYPIQSAVKQHVTSADTKLAPVSIYKFSFKGPYSYSFLYTFTHQDFGVVHCDELIYLFRSPALFPDFPHKSKEARMSHHFVEFFINFAINGVATPLKPYRGCNNDNEVYQSMDCDVLEFINSSEPGKPFEVRVSNGRNEDLFSFWRKFY
notes: full-length cDNA (ORF 1746 nt) from 4th instar larvae, predicted 19-residue signal peptide removed on secretion, mature 563 residues, 63,430 Da; recombinant baculovirus AcCqJHE in High Five cells, secreted
Km [3]: 2960 ± 420 µM | Vmax [3]: 20 µmol/min/mg | kcat [3]: 21 s⁻¹ | kcat/Km [3]: 7100 M⁻¹ s⁻¹ | Km [4]: 340 ± 17 µM | Vmax [4]: 120 µmol/min/mg | kcat [4]: 130 s⁻¹ | kcat/Km [4]: 380000 M⁻¹ s⁻¹ | Km [5]: 0.13 ± 0.02 µM | Vmax [5]: 1.2 µmol/min/mg | kcat [5]: 1.3 s⁻¹ | kcat/Km [5]: 1e+07 M⁻¹ s⁻¹
